{"source": "patent US20100021987", "proteins": {"B1": {"name": "human SENP2 (hSENP2) SUMO protease catalytic domain (protein)", "chain": "MASLLELTEDMEKEISNALGHGPQDEILSSAFKLRITRGDIQTLKNYHWLNDEVINFYMNLLVERNKKQGYPALHVFSTFFYPKLKSGGYQAVKRWTKGVNLFEQEIILVPIHRKVHWSLVVIDLRKKCLKYLDSMGQKGHRICEILLQYLQDESKTKRNSDLNLLEWTHHSMKPHEIPQQLNGSDCGMFTCKYADYISRDKPITFTQHQMPLFRKKMVWEILHQQLLAAALEHHHHHH"}}, "key": {"[1]": {"biological_target": "6xHis-hSUMO-3-X-eGFP, X = A"}, "[2]": {"biological_target": "6xHis-hSUMO-3-X-eGFP, X = C"}, "[3]": {"biological_target": "6xHis-hSUMO-3-X-eGFP, X = D"}, "[4]": {"biological_target": "6xHis-hSUMO-3-X-eGFP, X = E"}, "[5]": {"biological_target": "6xHis-hSUMO-3-X-eGFP, X = F"}, "[6]": {"biological_target": "6xHis-hSUMO-3-X-eGFP, X = G"}, "[7]": {"biological_target": "6xHis-hSUMO-3-X-eGFP, X = H"}, "[8]": {"biological_target": "6xHis-hSUMO-3-X-eGFP, X = I"}, "[9]": {"biological_target": "6xHis-hSUMO-3-X-eGFP, X = K"}, "[10]": {"biological_target": "6xHis-hSUMO-3-X-eGFP, X = L"}, "[11]": {"biological_target": "6xHis-hSUMO-3-X-eGFP, X = N"}, "[12]": {"biological_target": "6xHis-hSUMO-3-X-eGFP, X = P"}, "[13]": {"biological_target": "6xHis-hSUMO-3-X-eGFP, X = Q"}, "[14]": {"biological_target": "6xHis-hSUMO-3-X-eGFP, X = R"}, "[15]": {"biological_target": "6xHis-hSUMO-3-X-eGFP, X = S"}, "[16]": {"biological_target": "6xHis-hSUMO-3-X-eGFP, X = T"}, "[17]": {"biological_target": "6xHis-hSUMO-3-X-eGFP, X = V"}, "[18]": {"biological_target": "6xHis-hSUMO-3-X-eGFP, X = W"}, "[19]": {"biological_target": "6xHis-hSUMO-3-X-eGFP, X = Y"}}, "data": [{"protein": "B1", "values": [{"measurement": "activity level (grade)", "setting": "6xHis-AtSUMO1-eGFP", "value": "+"}, {"measurement": "cleavage, 2-fold enzyme dilution series, SDS-PAGE", "setting": "6xHis-AtSUMO1-eGFP", "value": "Both hSENP2 and yUlp1 cleaved the AtSUMO1 fusion similarly"}, {"measurement": "activity level (grade)", "setting": "6xHis-AtSUMO2-eGFP", "value": "+"}, {"measurement": "activity level (grade)", "setting": "6xHis-T-SUMO-eGFP", "value": "+"}, {"measurement": "activity level (grade)", "setting": "6xHis-hSUMO-1-eGFP", "value": "++"}, {"measurement": "cleavage, 2-fold enzyme dilution series, SDS-PAGE; fold against yUlp1", "setting": "6xHis-hSUMO-1-eGFP", "value": "hSENP2 was able to cleave hSUMO-1 and ySmt3 fusions somewhat more effectively (about 2-fold) than yUlp1"}, {"measurement": "cleavage, time course, SDS-PAGE", "setting": "6xHis-hSUMO-1-eGFP", "value": "both enzymes cleaving hSUMO-1-eGFP poorly"}, {"measurement": "Percent cleavage, enzyme:substrate 1:100", "setting": "[1]", "value": 99.6, "unit": "%"}, {"measurement": "Percent cleavage, enzyme:substrate 1:1000", "setting": "[1]", "value": 92.5, "unit": "%"}, {"measurement": "Percent cleavage, enzyme:substrate 1:100", "setting": "[2]", "value": 100, "unit": "%"}, {"measurement": "Percent cleavage, enzyme:substrate 1:1000", "setting": "[2]", "value": 98.5, "unit": "%"}, {"measurement": "Percent cleavage, enzyme:substrate 1:100", "setting": "[3]", "value": 99.5, "unit": "%"}, {"measurement": "Percent cleavage, enzyme:substrate 1:1000", "setting": "[3]", "value": 69.8, "unit": "%"}, {"measurement": "Percent cleavage, enzyme:substrate 1:100", "setting": "[4]", "value": 100, "unit": "%"}, {"measurement": "Percent cleavage, enzyme:substrate 1:1000", "setting": "[4]", "value": 92.2, "unit": "%"}, {"measurement": "Percent cleavage, enzyme:substrate 1:100", "setting": "[5]", "value": 100, "unit": "%"}, {"measurement": "Percent cleavage, enzyme:substrate 1:1000", "setting": "[5]", "value": 98.9, "unit": "%"}, {"measurement": "Percent cleavage, enzyme:substrate 1:100", "setting": "[6]", "value": 100, "unit": "%"}, {"measurement": "Percent cleavage, enzyme:substrate 1:1000", "setting": "[6]", "value": 98.9, "unit": "%"}, {"measurement": "Percent cleavage, enzyme:substrate 1:100", "setting": "[7]", "value": 100, "unit": "%"}, {"measurement": "Percent cleavage, enzyme:substrate 1:1000", "setting": "[7]", "value": 98.4, "unit": "%"}, {"measurement": "Percent cleavage, enzyme:substrate 1:100", "setting": "[8]", "value": 98.4, "unit": "%"}, {"measurement": "Percent cleavage, enzyme:substrate 1:1000", "setting": "[8]", "value": 56.2, "unit": "%"}, {"measurement": "Percent cleavage, enzyme:substrate 1:100", "setting": "[9]", "value": 100, "unit": "%"}, {"measurement": "Percent cleavage, enzyme:substrate 1:1000", "setting": "[9]", "value": 92.8, "unit": "%"}, {"measurement": "Percent cleavage, enzyme:substrate 1:100", "setting": "[10]", "value": 98.6, "unit": "%"}, {"measurement": "Percent cleavage, enzyme:substrate 1:1000", "setting": "[10]", "value": 75.2, "unit": "%"}, {"measurement": "Percent cleavage, enzyme:substrate 1:100", "setting": "[11]", "value": 96.2, "unit": "%"}, {"measurement": "Percent cleavage, enzyme:substrate 1:1000", "setting": "[11]", "value": 98.3, "unit": "%"}, {"measurement": "Percent cleavage, enzyme:substrate 1:100", "setting": "[12]", "value": 0, "unit": "%"}, {"measurement": "Percent cleavage, enzyme:substrate 1:1000", "setting": "[12]", "value": 0, "unit": "%"}, {"measurement": "Percent cleavage, enzyme:substrate 1:100", "setting": "[13]", "value": 95.9, "unit": "%"}, {"measurement": "Percent cleavage, enzyme:substrate 1:1000", "setting": "[13]", "value": 66.7, "unit": "%"}, {"measurement": "Percent cleavage, enzyme:substrate 1:100", "setting": "[14]", "value": 99.7, "unit": "%"}, {"measurement": "Percent cleavage, enzyme:substrate 1:1000", "setting": "[14]", "value": 98.7, "unit": "%"}, {"measurement": "Percent cleavage, enzyme:substrate 1:100", "setting": "[15]", "value": 99.6, "unit": "%"}, {"measurement": "Percent cleavage, enzyme:substrate 1:1000", "setting": "[15]", "value": 99.1, "unit": "%"}, {"measurement": "Percent cleavage, enzyme:substrate 1:100", "setting": "[16]", "value": 99, "unit": "%"}, {"measurement": "Percent cleavage, enzyme:substrate 1:1000", "setting": "[16]", "value": 82, "unit": "%"}, {"measurement": "Percent cleavage, enzyme:substrate 1:100", "setting": "[17]", "value": 100, "unit": "%"}, {"measurement": "Percent cleavage, enzyme:substrate 1:1000", "setting": "[17]", "value": 99.8, "unit": "%"}, {"measurement": "Percent cleavage, enzyme:substrate 1:100", "setting": "[18]", "value": 100, "unit": "%"}, {"measurement": "Percent cleavage, enzyme:substrate 1:1000", "setting": "[18]", "value": 99.4, "unit": "%"}, {"measurement": "Percent cleavage, enzyme:substrate 1:100", "setting": "[19]", "value": 100, "unit": "%"}, {"measurement": "Percent cleavage, enzyme:substrate 1:1000", "setting": "[19]", "value": 98.7, "unit": "%"}, {"measurement": "Kcat", "setting": "6xHis-hSUMO-3-eGFP", "value": "Kcat = 0.33"}, {"measurement": "Kcat, fold difference against yUlp1", "setting": "6xHis-hSUMO-3-eGFP", "value": "about 12-fold difference in Kcat"}, {"measurement": "Km", "setting": "6xHis-hSUMO-3-eGFP", "value": "Km = 2.41 mM"}, {"measurement": "Percent cleavage, enzyme:substrate 1:100", "setting": "6xHis-hSUMO-3-eGFP", "value": 99.4, "unit": "%"}, {"measurement": "Percent cleavage, enzyme:substrate 1:1000", "setting": "6xHis-hSUMO-3-eGFP", "value": 95.4, "unit": "%"}, {"measurement": "activity level (grade)", "setting": "6xHis-hSUMO-3-eGFP", "value": "+++"}, {"measurement": "cleavage, 2-fold enzyme dilution series, SDS-PAGE; fold against yUlp1", "setting": "6xHis-hSUMO-3-eGFP", "value": "hSENP2 was able to cleave hSUMO-3-eGFP at least 4-fold better than an identical amount of yUlp1"}, {"measurement": "cleavage, time course, SDS-PAGE", "setting": "6xHis-hSUMO-3-eGFP", "value": "providing nearly complete cleavage within 2 hrs."}, {"measurement": "Kcat", "setting": "6xHis-ySmt3-eGFP", "value": "Kcat = 0.75"}, {"measurement": "Kcat, fold difference against yUlp1", "setting": "6xHis-ySmt3-eGFP", "value": "about 2-fold difference in Kcat"}, {"measurement": "Km", "setting": "6xHis-ySmt3-eGFP", "value": "Km = 2.72 mM"}, {"measurement": "activity level (grade)", "setting": "6xHis-ySmt3-eGFP", "value": "+++++"}, {"measurement": "cleavage, 2-fold enzyme dilution series, SDS-PAGE; fold against yUlp1", "setting": "6xHis-ySmt3-eGFP", "value": "hSENP2 was able to cleave hSUMO-1 and ySmt3 fusions somewhat more effectively (about 2-fold) than yUlp1"}, {"measurement": "cleavage, time course, SDS-PAGE", "setting": "6xHis-ySmt3-eGFP", "value": "both enzymes cleaving hSUMO-1-eGFP poorly and ySmt3-eGFP well"}]}]}
